Experimental data from PMC8648840, “Functional consequences of TCF4 missense substitutions associated with Pitt-Hopkins syndrome, mild intellectual disability, and schizophrenia” (The Journal of Biological Chemistry, 2021).

T1: achaete-scute homolog 1 (ASCL1), expressed in cells (UniProt P50553 1-236)
T1 sequence (looked up): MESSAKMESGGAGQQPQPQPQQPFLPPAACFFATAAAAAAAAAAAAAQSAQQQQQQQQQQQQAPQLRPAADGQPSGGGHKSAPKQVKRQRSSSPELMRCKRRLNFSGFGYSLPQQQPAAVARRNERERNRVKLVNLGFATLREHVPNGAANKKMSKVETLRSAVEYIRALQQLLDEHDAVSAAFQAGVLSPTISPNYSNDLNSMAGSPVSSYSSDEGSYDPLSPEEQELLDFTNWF


Target: T1, achaete-scute homolog 1 (ASCL1), …
Experiment: cell-based or functional assay

| Binder | luciferase reporter (12 μE5 E-boxes, minimal promoter) in HEK293 cells, coexpressed with ASCL1; reduction against WT TCF4-B¯ [fold] | luciferase reporter (12 μE5 E-boxes, minimal promoter) in HEK293 cells, coexpressed with ASCL1; increase against WT TCF4-B¯ [fold] | luciferase reporter in rat primary neurons, basal conditions, coexpressed with ASCL1; increase against WT TCF4-B¯ [fold] | luciferase reporter (12 μE5 E-boxes, TK promoter) in depolarized rat primary neurons; increase when ASCL1 was coexpressed [fold] |
| --- | --- | --- | --- | --- |
| TCF4-B¯ A587P (natural protein, human, UniProt P15884-3 1-671, looked up) MHHQQRMAALGTDKELSDLLDFSAMFSPPVSSGKNGPTSLASGHFTGSNVEDRSSSGSWGNGGHPSPSRNYGDGTPYDHMTSRDLGSHDNLSPPFVNSRIQSKTERGSYSSYGRESNLQGCHQQSLLGGDMDMGNPGTLSPTKPGSQYYQYSSNNPRRRPLHSSAMEVQTKKVRKVPPGLPSSVYAPSASTADYNRDSPGYPSSKPATSTFPSSFFMQDGHHSSDPWSSSSGMNQPGYAGMLGNSSHIPQSSSYCSLHPHERLSYPSHSSADINSSLPPMSTFHRSGTNHYSTSSCTPPANGTDSIMANRGSGAAGSSQTGDALGKALASIYSPDHTNNSFSSNPSTPVGSPPSLSAGTAVWSRNGGQASSSPNYEGPLHSLQSRIEDRLERLDDAIHVLRNHAVGPSTAMPGGHGDMHGIIGPSHNGAMGGLGSGYGTGLLSANRHSLMVGTHREDGVALRGSHSLLPNQVPVPQLPVQSATSPDLNPPQDPYRGMPPGLQGQSVSSGSSEIKSDDEGDENLQDTKSSEDKKLDDDKKDIKSITSNNDDEDLTPEQKAEREKERRMANNARERLRVRDINEPFKELGRMVQLHLKSDKPQTKLLILHQAVAVILSLEQQVRERNLNPKAACLKRREEEKVSSEPPPLSLAGPHPGMGDASNHMGQM | 4.8 |  |  |  |
| TCF4-B¯ N585D (natural protein, human, UniProt P15884-3 1-671, looked up) MHHQQRMAALGTDKELSDLLDFSAMFSPPVSSGKNGPTSLASGHFTGSNVEDRSSSGSWGNGGHPSPSRNYGDGTPYDHMTSRDLGSHDNLSPPFVNSRIQSKTERGSYSSYGRESNLQGCHQQSLLGGDMDMGNPGTLSPTKPGSQYYQYSSNNPRRRPLHSSAMEVQTKKVRKVPPGLPSSVYAPSASTADYNRDSPGYPSSKPATSTFPSSFFMQDGHHSSDPWSSSSGMNQPGYAGMLGNSSHIPQSSSYCSLHPHERLSYPSHSSADINSSLPPMSTFHRSGTNHYSTSSCTPPANGTDSIMANRGSGAAGSSQTGDALGKALASIYSPDHTNNSFSSNPSTPVGSPPSLSAGTAVWSRNGGQASSSPNYEGPLHSLQSRIEDRLERLDDAIHVLRNHAVGPSTAMPGGHGDMHGIIGPSHNGAMGGLGSGYGTGLLSANRHSLMVGTHREDGVALRGSHSLLPNQVPVPQLPVQSATSPDLNPPQDPYRGMPPGLQGQSVSSGSSEIKSDDEGDENLQDTKSSEDKKLDDDKKDIKSITSNNDDEDLTPEQKAEREKERRMANNARERLRVRDIDEAFKELGRMVQLHLKSDKPQTKLLILHQAVAVILSLEQQVRERNLNPKAACLKRREEEKVSSEPPPLSLAGPHPGMGDASNHMGQM |  | 1.6 | 2.4 |  |
| TCF4-B¯ S253R (natural protein, human, UniProt P15884-3 1-671, looked up) MHHQQRMAALGTDKELSDLLDFSAMFSPPVSSGKNGPTSLASGHFTGSNVEDRSSSGSWGNGGHPSPSRNYGDGTPYDHMTSRDLGSHDNLSPPFVNSRIQSKTERGSYSSYGRESNLQGCHQQSLLGGDMDMGNPGTLSPTKPGSQYYQYSSNNPRRRPLHSSAMEVQTKKVRKVPPGLPSSVYAPSASTADYNRDSPGYPSSKPATSTFPSSFFMQDGHHSSDPWSSSSGMNQPGYAGMLGNSSHIPQSSRYCSLHPHERLSYPSHSSADINSSLPPMSTFHRSGTNHYSTSSCTPPANGTDSIMANRGSGAAGSSQTGDALGKALASIYSPDHTNNSFSSNPSTPVGSPPSLSAGTAVWSRNGGQASSSPNYEGPLHSLQSRIEDRLERLDDAIHVLRNHAVGPSTAMPGGHGDMHGIIGPSHNGAMGGLGSGYGTGLLSANRHSLMVGTHREDGVALRGSHSLLPNQVPVPQLPVQSATSPDLNPPQDPYRGMPPGLQGQSVSSGSSEIKSDDEGDENLQDTKSSEDKKLDDDKKDIKSITSNNDDEDLTPEQKAEREKERRMANNARERLRVRDINEAFKELGRMVQLHLKSDKPQTKLLILHQAVAVILSLEQQVRERNLNPKAACLKRREEEKVSSEPPPLSLAGPHPGMGDASNHMGQM | 1.4 |  |  |  |
| TCF4-B¯ R569W (natural protein, human, UniProt P15884-3 1-671, looked up) MHHQQRMAALGTDKELSDLLDFSAMFSPPVSSGKNGPTSLASGHFTGSNVEDRSSSGSWGNGGHPSPSRNYGDGTPYDHMTSRDLGSHDNLSPPFVNSRIQSKTERGSYSSYGRESNLQGCHQQSLLGGDMDMGNPGTLSPTKPGSQYYQYSSNNPRRRPLHSSAMEVQTKKVRKVPPGLPSSVYAPSASTADYNRDSPGYPSSKPATSTFPSSFFMQDGHHSSDPWSSSSGMNQPGYAGMLGNSSHIPQSSSYCSLHPHERLSYPSHSSADINSSLPPMSTFHRSGTNHYSTSSCTPPANGTDSIMANRGSGAAGSSQTGDALGKALASIYSPDHTNNSFSSNPSTPVGSPPSLSAGTAVWSRNGGQASSSPNYEGPLHSLQSRIEDRLERLDDAIHVLRNHAVGPSTAMPGGHGDMHGIIGPSHNGAMGGLGSGYGTGLLSANRHSLMVGTHREDGVALRGSHSLLPNQVPVPQLPVQSATSPDLNPPQDPYRGMPPGLQGQSVSSGSSEIKSDDEGDENLQDTKSSEDKKLDDDKKDIKSITSNNDDEDLTPEQKAEREKEWRMANNARERLRVRDINEAFKELGRMVQLHLKSDKPQTKLLILHQAVAVILSLEQQVRERNLNPKAACLKRREEEKVSSEPPPLSLAGPHPGMGDASNHMGQM |  | 2.2 | 2.8 |  |
| Transcription factor 4 isoform TCF4-A¯, wild type (natural protein, human, UniProt P15884-6 1-507, looked up) MYCAYTIPGMGGNSLMYYYNGKAVYAPSASTADYNRDSPGYPSSKPATSTFPSSFFMQDGHHSSDPWSSSSGMNQPGYAGMLGNSSHIPQSSSYCSLHPHERLSYPSHSSADINSSLPPMSTFHRSGTNHYSTSSCTPPANGTDSIMANRGSGAAGSSQTGDALGKALASIYSPDHTNNSFSSNPSTPVGSPPSLSAGTAVWSRNGGQASSSPNYEGPLHSLQSRIEDRLERLDDAIHVLRNHAVGPSTAMPGGHGDMHGIIGPSHNGAMGGLGSGYGTGLLSANRHSLMVGTHREDGVALRGSHSLLPNQVPVPQLPVQSATSPDLNPPQDPYRGMPPGLQGQSVSSGSSEIKSDDEGDENLQDTKSSEDKKLDDDKKDIKSITSNNDDEDLTPEQKAEREKERRMANNARERLRVRDINEAFKELGRMVQLHLKSDKPQTKLLILHQAVAVILSLEQQVRERNLNPKAACLKRREEEKVSSEPPPLSLAGPHPGMGDASNHMGQM |  |  |  | 2.5 |
